Earlier results on 2 molecules are cited in US11937625B2, “Oral administration formulation of blueberry extract as a coadjuvant for preserving the health of human precorneal film” (CENTRO DE RETINA MEDICA Y QUIRURGICA, S.C., priority 2017, dated 2024).

For series [1] the following is noted: day 60; oral supplement; post-cataract surgery patients; control group 7.86 (±0.86) seconds.
The subject of a further series is pepsin. The settings on record: in mice; Nojima et al (2008).

B1: lactoferrin (protein, UniProt P02788 20-710, looked up)
Lactotransferrin: GRRRSVQWCAVSQPEATKCFQWQRNMRKVRGPPVSCIKRDSPIQCIQAIAENRADAVTLDGGFIYEAGLAPYKLRPVAAEVYGTERQPRTHYYAVAVVKKGGSFQLNELQGLKSCHTGLRRTAGWNVPIGTLRPFLNWTGPPEPIEAAVARFFSASCVPGADKGQFPNLCRLCAGTGENKCAFSSQEPYFSYSGAFKCLRDGAGDVAFIRESTVFEDLSDEAERDEYELLCPDNTRKPVDKFKDCHLARVPSHAVVARSVNGKEDAIWNLLRQAQEKFGKDKSPKFQLFGSPSGQKDLLFKDSAIGFSRVPPRIDSGLYLGSGYFTAIQNLRKSEEEVAARRARVVWCAVGEQELRKCNQWSGLSEGSVTCSSASTTEDCIALVLKGEADAMSLDGGYVYTAGKCGLVPVLAENYKSQQSSDPDPNCVDRPVEGYLAVAVVRRSDTSLTWNSVKGKKSCHTAVDRTAGWNIPMGLLFNQTGSCKFDEYFSQSCAPGSDPRSNLCALCIGDEQGENKCVPNSNERYYGYTGAFRCLAENAGDVAFVKDVTVLQNTDGNNNEAWAKDLKLADFALLCLDGKRKPVTEARSCHLAMAPNHAVVSRMDKVERLKQVLLHQQAKFGRNGSDCPDKFCLFQSETKNLLFNDNTECLARLHGKTTYEKYLGPQYVAGITNLKKCSTSPLLEACEFLRK
Turning to B1, the fluorescein break-up time in series [1] is 13.9 (±0.99) seconds.

B2: mono-PEGylated lactoferrin: lactoferrin with covalent attachment of polyethylene glycol (PEG), synthesized by Nojima et al (2008) (conjugate, UniProt P02788 20-710, looked up)
Lactotransferrin: B1 Lactotransferrin
modifications: mono-PEGylated
As for B2, in the series with pepsin, the “resistance to pepsin proteolysis” value is recorded as “greater resistance”.
